Assay [1] addresses T1, human PD-1 expressed on cells (CHO TREX human PD1 cell line, full-length human PD-1 sequence) (human, UniProt Q15116 21-288).
T1 construct: Also used for human PD-1 on Jurkat reporter cells, on PathHunter cells and on PHA-stimulated human CD4+ T cells; also called CHO human PD1 cells; CHO human PD-1 cells
As to the kind of experiment: flow cytometry, PHA-stimulated human CD4+ T cells, Donor 2. On the procedure: Binding of monovalent single domain antibodies and multivalent binding agents to T cells was measured using flow cytometry. Peripheral blood mononuclear cells (PBMCs) were isolated from human blood by density gradient centrifugation then CD4+ T cells purified using a negative selection isolation kit according to the manufacturer's protocol (Miltenyi Biotech cat no 130-096-533). T-cells were stimulated with 2.5 μg/ml PHA for 3 days in RPMI media supplemented with 10% FBS, 2 mM Glutamine, 1× Pen/Strep. Cells were transferred into 96 well plates (75000 per well), blocked for 10 mins with PBS/1% BSA, then incubated with serially diluted VH in staining buffer (PBS/1% BSA) for 1 hour at 4° C. Cells were washed with staining buffer by centrifugation then incubated with 10 μg/ml biotinylated Anti His antibody for 40 mins at 4° C. Cells were washed again then stained with Streptavidin Alexa Fluor-488 (10 μg/ml) and 1:5000 diluted Live Dead near IR stain (Molecular Probes cat no. L10119) for 30 mins at 4° C. After further washing cells were fixed and fluorescence measured by flow cytometry.
On the technique in general: In flow cytometry, cells or beads pass a laser one at a time.

The target in assay [2] is T1, human PD-1 expressed on cells (CHO TREX …). As to the kind of experiment: FMAT: inhibition of PDL-2 (100 pM) binding to CHO human PD-1 cells. On the procedure:
(§1) Purified VH were serially diluted in FMAT assay buffer and tested for binding to CHO human PD-1 cells as described above and for inhibition of human PD-L1/PD-L2 binding to CHO human PD-1 cells. All reagents and serially diluted VH were prepared in FMAT assay buffer. VH, buffer (total binding controls) or excess competitor (non-specific binding control) were incubated with 400 pM human Fc tagged human PD-L1 or 100 pM PDL-2, 4 nM anti human Fc-Alexa Fluor-488 and 2000 per well CHO human PD-1 DRAQ5 stained cells in a 384 well black clear-bottomed assay plates. Plates were incubated for 2 hours at room temperature then fluorescence measured in the FL2 (502 nm-537 nm) and FL5 (677-800 nm) channels on the Mirrorball plate reader (TTP) following excitation at 488 nm and 640 nm. Data was expressed as a % of the total binding control (i.e. % control) after subtraction of the background signal determined from the non-specific binding control wells. The results are shown in FIG. 5 and in Tables 8 and 9 below.

Assay [3] has as its target T2, recombinant human PD-1 Fc chimera (human, UniProt Q15116 25-167).
T2 construct: Bought protein (R&D 1086-PD in the HTRF assay); also called human PD-1-hu Fc; huPD-1Fc; not shown: human Fc
As to the kind of experiment: HTRF binding assay, 2 nM recombinant PD1, anti His-D2 and anti human-Fc cryptate. On the procedure: (§2) Purified VH were tested for their ability to bind to human PD1 (R&D Systems cat no. 1086-PD), cynomolgus PD-1 (Acro Biosystems cat no. PD-1-C5254) and mouse PD1 (R&D Systems cat no. 1021-PD) in an HTRF Binding assay format. All reagents and serially diluted VH were prepared in assay buffer containing PBS, 0.1% BSA and 0.4M Potassium Fluoride. Samples or assay buffer (non-specific binding) were incubated with 2 nM human/cynomolgus or mouse PD1, 1 nM Anti human-Fc Cryptate PAb (Cisbio cat. no. 61HFCKLB) and 30 nM anti His-D2 (CisBio cat no 61HISDLA) in black 384-shallow well assay plates for a minimum of 3 hours at room temperature. Time-resolved fluorescent emission at 620 nm and 665 nm was measured following excitation at 337 nm on the BMG PHERAstar plate reader. The HTRF ratio were calculated ((665 nm emission/620 nm emission)*10000) and the data corrected for (non-specific binding) to give the specific binding signal.
A general note: In TR-FRET formats the signal depends on donor and acceptor labels being close together.

Assay [4] has as its target T3, cynomolgus PD-1 recombinant protein (Acro Biosystems cat no. PD-1-C5254) (cynomolgus).
T3 construct: Bought protein; also called cyno PD1
The description is as above. The procedure:
as §2

The target of assay [5] is T1, human PD-1 expressed on cells (CHO TREX …). Kind of assay: FMAT: inhibition of human Fc tagged human PD-L1 (400 pM) binding to CHO human PD-1 cells. The procedure:
as §1

The target is the same in assay [6]. Kind of assay: FMAT epitope competition, CHO human PD1 cells; competitor Epitope 1 (1.1-Strep tagged protein). The procedure:
For the epitope competition assay reagents were prepared in FMAT assay buffer.
Multivalent molecules 1.92b-4GS-1.39a and 1.92b-4gs-1.62a were tested in the epitope competition assay as described above. 1.92b-4GS-1.39a and 1.92b-4gs-1.62 did cross compete with 1.1-Strap tagged and 2.1-Strap tagged proteins for binding to the cells.
Plates were incubated for a minimum of 1.5 hours at room temperature then fluorescence measured in the FL2 (502 nm-537 nm) and FL5 (677-800 nm) channels on the Mirrorball plate reader (TTP) following excitation at 488 nm and 640 nm. Data was expressed as a % of the total binding control (i.e. % control) after subtraction of the background signal determined from the non-specific binding control wells.

Assay [7] shares this target. As to the kind of experiment: epitope competition assay on CHO human PD1 cells (labelled VH not specified) after 0 days in mouse serum. The procedure: (§3) Serum stability of VH and multivalent VH constructs was assessed by measurement of their activity following incubation for 0, 1, 4 or 7 days both in mouse (Sigma M5905) and human serum. […] Minimal loss of activity was observed following incubation with serum.

The target is the same in assay [8]. Kind of assay: epitope competition assay on CHO human PD1 cells (labelled VH not specified) after 4 days in mouse serum. On the procedure: as §3

T1 sequence (Q15116 21-288): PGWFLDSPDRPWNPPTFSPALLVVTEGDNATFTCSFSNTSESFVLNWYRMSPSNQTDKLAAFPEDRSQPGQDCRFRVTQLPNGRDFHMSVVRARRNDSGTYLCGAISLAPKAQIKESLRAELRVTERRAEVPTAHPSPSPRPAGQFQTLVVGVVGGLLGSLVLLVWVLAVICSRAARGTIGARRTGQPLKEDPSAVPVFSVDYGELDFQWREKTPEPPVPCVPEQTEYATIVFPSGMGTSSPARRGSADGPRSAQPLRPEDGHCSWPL
T2 sequence (Q15116 25-167 limits assumed, change not shown): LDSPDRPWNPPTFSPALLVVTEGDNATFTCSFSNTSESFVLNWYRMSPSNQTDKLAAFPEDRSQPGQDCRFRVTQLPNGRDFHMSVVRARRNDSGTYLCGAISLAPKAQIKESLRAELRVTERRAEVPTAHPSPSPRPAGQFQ

B1: 1.92b-4GS-1.62a (other)
chain: EVQLVESGGGLVKPGGSLRLSCAASGFTFSDESMTWMRQAPGKGLEWVSYISSGGGVKFYADSVKGRFTISRDNAKNSLYLQMNSLRAEDTAVYYCAREAPLRLGESPHDAFDISGQGTMVTVSSGGGGSGGGGSGGGGSGGGGSEVQLVESGGGVVRPGGSLRLSCAASGFTFDDYAMSWVRQAPGKGLEWVSGITWNAGSTGYADSVKGRFTISRDNAKNSLYLQMNSLRAEDTALYYCVRDKYSYAWSYDDFDIWGQGTMVTVSS
notes: Biparatopic VH-linker-VH; also called 1.92-4GS-1.62a; 1.92b-4gs-2.12a
For the molecule B1, the concentration for a half-maximal effect (EC50) (as a rule, the concentration giving half of the maximal effect) in assay [1] turned out to be 0.4 nM; in assay [3], 2.1 nM; in assay [4] it was 3.9 nM; in assay [6], 1 nM. In addition, the IC50 (as a rule, the concentration needed to halve the response being measured) came to 1.6 nM in assay [2], 1.2 nM in assay [5], 1.7 nM in assay [7] and 1.8 nM in assay [8].

B2: 1.92b-4GS-1.39a (other)
chain: EVQLVESGGGLVKPGGSLRLSCAASGFTFSDESMTWMRQAPGKGLEWVSYISSGGGVKFYADSVKGRFTISRDNAKNSLYLQMNSLRAEDTAVYYCAREAPLRLGESPHDAFDISGQGTMVTVSSGGGGSGGGGSGGGGSGGGGSEVQLVESGGGLVQPGRSLRLSCAASGFTFDDYALHWVRQAPGKDLEWVSGISWNGGSYGYADSVKGRFTISRDNAKNSLYLQMNSLRAEDTALYYCVREKGPGLTGSTADYYGLDAWGQGTMVTVSS
notes: Biparatopic VH-linker-VH; built from its parts here because it is not clear whether 1112 is the protein or the nucleic acid
As to B2, the EC50 came out at 0.6 nM in assay [1], 2.1 nM in assay [3], 3.7 nM in assay [4] and 1.1 nM in assay [6]. Moreover, the half-maximal inhibitory concentration (IC50) in assay [2] turned out to be 1.9 nM; in assay [5] it was 1.45 nM; in assay [7], 1.2 nM; in assay [8], 1.6 nM.

The values are drawn from patent US20220306744A1 (CRESCENDO BIOLOGICS, published 2022).
